The target of assay [1] is T1, gEgI WT: HSV2 gEgI heterodimer comprising gE and gI wildtype ectodomains (HSV2, UniProt P89475 21-416; P06764 21-256). Briefly: SPR binning; gEgI captured by mAb 39.
The target of assay [2] is T1, gEgI WT: HSV2 gEgI heterodimer …. In words: SPR binning; gEgI captured by mAb 10.
Assay [3] shares this target. In words: SPR binning; gEgI captured by mAb 19.
Assay [4] has the same target. Briefly: SPR binning; gEgI captured by mAb 24.
For assay [5] the target is unchanged. Briefly: SPR binning; gEgI captured by mAb 9.
Assay [6] shares this target. In words: SPR binning; gEgI captured by mAb 45.
Assay [7] shares this target. In words: SPR binning; gEgI captured by mAb 15.
Assay [8] shares this target. In words: SPR binning; gEgI captured by mAb 42.
Assay [9] addresses gEgI mutant (338): HSV2 gEgI mutant heterodimer comprising gE and gI ectodomains with insertion of a (HSV2, UniProt P89475 21-416; P06764 21-256). Briefly: ELISA, supernatant. In general terms: ELISA stands for enzyme-linked immunosorbent assay.
The target in assay [10] is T1, gEgI WT: HSV2 gEgI heterodimer …. In words: SPR binning; gEgI captured by mAb 5.
The target is the same in assay [11]. Briefly: SPR binning; gEgI captured by mAb 34.
Assay [12] has the same target. In words: SPR binning; gEgI captured by mAb 20.
For assay [13] the target is unchanged. In words: SPR binning; gEgI captured by mAb 17.
Assay [14] concerns the target T2, gE WT: HSV2 gE wildtype ectodomain (HSV2, UniProt P89475 21-416). In words: ELISA, supernatant.
For assay [15], the target named is T3, gI WT: HSV2 gI wildtype ectodomain (HSV2, UniProt P06764 21-256). Briefly: ELISA, supernatant.
The target of assay [16] is T1, gEgI WT: HSV2 gEgI heterodimer …. Briefly: SPR binning; gEgI captured by mAb 40.
Assay [17] shares this target. In words: ELISA, supernatant.
The target in assay [18] is T2, gE WT: HSV2 gE wildtype ectodomain. Briefly: ELISA, supernatant. This is another data set of the same source.
For assay [19], the target named is gEgI mutant (R320D): HSV2 gEgI mutant heterodimer comprising gE and gI ectodomains with mutation R320D in gE (HSV2, UniProt P89475 21-416; P06764 21-256). In words: ELISA, supernatant.
The target of assay [20] is gEgI mutant (P317R): HSV2 gEgI mutant heterodimer comprising gE and gI ectodomains with mutation P317R in gE (HSV2, UniProt P89475 21-416; P06764 21-256). In words: ELISA, supernatant.
For assay [21], the target named is gEgI mutant (P319D): HSV2 gEgI mutant heterodimer comprising gE and gI ectodomains with mutation P319D in gE (HSV2, UniProt P89475 21-416; P06764 21-256). Briefly: ELISA, supernatant.
Assay [22] has as its target T1, gEgI WT: HSV2 gEgI heterodimer …. In words: ELISA, supernatant. This is another data set of the same source.
Assay [23] deals with T3, gI WT: HSV2 gI wildtype ectodomain. In words: ELISA, supernatant. The source holds these as a separate data set.

The source of these data is patent US20230331820A1 (GlaxoSmithKline, published 2023).

Like-named read-outs stand apart in the source and are kept apart here.

B1: mAb clone 39 (antibody, V domains shown)
VH: EVKLVESGGGLVQPGGSLKLSCAASGFTFSSYTMSWVRQTPEKRLEWVAYISNGGGSTYYPDTVKGRFTISRDNAKNTLYLQMSSLKSEDTAMYYCARGVSYYGDLYYFDYWGQGTTLTVSS
VL: DVVVTQTPLSLPVSFGDQVSISCRSSQSLANSYGNTYLSWYLHKPGQSPQLLIYGISNRFSGVPDRFSGSGSGTDFTLKISTIKPEDLGMYYCLQGTHQPWTFGGGTKLEIK
With B1, the RU in assay [1] was 1.3 RU; in assay [2], 2.3 RU; in [3], -7.2 RU; in assay [4], -0.9 RU; in assay [5] it was -1.5 RU; in assay [6], -5.4 RU. The RU in assay [7] was -4.8 RU; in [8], 0.1 RU; in assay [10], 0.6 RU; in assay [11] it was -6.4 RU; in assay [12], 3.1 RU; in assay [13], -0.6 RU. Further, in assay [16], the RU is -1.2 RU. The binding result in [9] is recorded as “binds”; in assay [14], “no binding”; in assay [15] it was “no binding”.

B2: mAb clone 47 (antibody, V domains shown)
VH: EVKLVESGGGLVQPGGSLRLSCATSGFTFTDYYMSWVRQPPGKALEWLGFIRNKANGYTTEYSASVKGRFTISRDNSQSILYLQMNTLRAEDSATYYCARDRPGFDYWGQGTTLTVSS
VL: NIVLTQSPASLAVSLGQRATISCRASESVDSFGNSFMHWYQQKPGQPPKLLIYLASNLESGVPARFSGSGSRTDFTLTIDPVEADDAATYYCQQNNEDPPWTFGGGTKLEIK
Regarding B2, the binding result in [17] is on record as “binds”; in [18], “binds”; in assay [19], “no binding”; in [20], “no binding”; in [21] it was “no binding”; in [9], “no binding”. Also, in assay [15], the binding result is “no binding”.

B3: mAb clone 40 (antibody, V domains shown)
VH: QIQLVQSGPELKKPGETVKISCKASGYTFTNYGMNWVKQAPGKGLKWMGWINTYTGEPTYADDFKGRFAFSLETSASTAYLQINNLKNEDTATYFCARSLYGYDEGYFDVWGAGTTVTVSS
VL: DIQMTQSPASLSASVGETVTITCRASGNIHNYLAWYQQKQGKSPQLLVYNAKTLADGVPSRFSGSGSGTQYSLKINSLQPEDFGSYYCQHFWSTPYTFGGGTKLEIK
As for B3, the RU is 9 RU in assay [1]; 9.8 RU in [2]; 6.4 RU in [3]; 7.6 RU in assay [4]; 8.8 RU in assay [5]; 7.3 RU in assay [6]. For the same molecule, the RU in [7] is -0.4 RU; in assay [8], 7.4 RU; in assay [10] it was 9 RU; in assay [11], 5.2 RU; in assay [12], 10 RU; in assay [13], 8.8 RU. This molecule yielded an RU in [16] of 2.6 RU. Further, the binding result in [9] is listed as “binds”; in [14] it was “no binding”; in assay [15] it was “no binding”.

B4: mAb clone 43 (antibody, V domains shown)
VH: DVKLVESGGGLVKPGGSLKLSCAASGFTFSSYTMSWVRQTPEKRLEWVATISSGGSYTYYPDSVKGRFTISRDNAKNTLYLQMSSLKAEDTAMYYCTRGGYGSSFENYFDYWGQGTTLTVSS
VL: DIVMSQSPSSLAVSAGEKVTMSCKSSQSLLNSRTRKNYLAWYQQKPGQSPKLLIYWASTRESGVPDRFTGSGSGTDFTLTISSVQAEDLAVYSCKQSYNLPLTFGAGTKLELK
notes: also called GEGI/43IIa
For B4, the binding result in assay [17], in assay [18], in assay [19], in assay [20], in assay [21] and in assay [9] was “binds” throughout. In assay [15], the binding result is “no binding”.

B5: mAb clone 41 (antibody, V domains shown)
VH: QVQLQQSGAELVRPGTSVKVSCKASGYAFTNYLIEWVKQRPGQGLEWIGVINPGSGGTNYNEKFKGKATLTADKSSSTAYMQLSSLTSDDSAVYFCARSGLRRDYYAMDYWGQGTSVTVSS
VL: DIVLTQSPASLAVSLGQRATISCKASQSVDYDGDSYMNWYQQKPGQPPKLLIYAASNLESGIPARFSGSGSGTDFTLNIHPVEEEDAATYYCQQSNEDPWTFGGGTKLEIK
In the case of B5, the binding result in [18] is recorded as “no binding”; in assay [19], “binds”; in assay [20] it was “binds”; in assay [21], “binds”; in assay [9], “binds”; in assay [22], “binds”. In addition, the binding result in [15] is given as “binds”.

B6: mAb clone 37 (antibody, V domains shown)
VH: EVQLQQSGPELVKPGASVKISCKASGYTFTDYNMHWVKQSHGKSLEWIGYIYPYNGGTGYNQKFKTKATLTVDNSSSTAYMELRSLTSEDSAVYYCAIPGYYYAMDYWGQGTSVTVSS
VL: DIVLTQSPASLAVSLGQRATISCRASKSVSTSGYSYMHWYQQKPGQPPKLLIYLASNLESGVPARFSGSGSGTDFTLNIHPVEEEDASTYYCHHSRELPRTFGGGTKLEIK
For B6, the binding result in assay [19], in assay [20], in assay [21], in assay [9], in assay [22] and in assay [14] was “binds” in each case. Also, the binding result in [15] was “no binding”.

B7: mAb clone 48 (antibody, V domains shown)
VH: QVTLKESGPGILQPSQTLSLTCSFSGFSLSTSGMGVSWIRQPSGKGLEWLAHIYWDDDKRYNPSLKSRLTISKDTSSNQVFLKITSVDTADTATYYCARRGFYYRYDGGRRYYYAMDYWGQGTSVTVSS
VL: DILLTQSPAILSVSPGERVSFSCRASQSIGTSIHWYQQGTNGSPRLLIKFASESISGIPSRFSGSGSGTDFTLSINSVESEDIADYYCQQSNSWPLTFGAGTKLELK
As to B7, the binding result is “no binding” in assay [23]; “binds” in assay [19]; “binds” in assay [20]; “binds” in assay [21]; “binds” in [9]; “binds” in assay [22]. In assay [14], the binding result is on record as “binds”.
